Test results from US20040224363A1.

Experiments:
[1] = target: putative IBC-1 receptor on G361 melanoma cells, moderately high affinity binding site; assay: Scatchard analysis of AP-IBC-1 binding to G361 melanoma cells (bound AP activity)
[2] = target: putative IBC-1 receptor on G361 melanoma cells, much lower affinity binding site; assay: as above

Kd [1]: 37.5 nM | binding sites/cell (binding sites/cell) [1]: 17000 | Kd [2]: 360 nM | binding sites/cell (binding sites/cell) [2]: 350000
Substance: alkaline phosphatase-IBC-1 (AP-IBC-1) fusion protein (from UniProt P81605 20-110) (ligand)
